Reference: patent publication US20110280881A1, “NOVEL ANTI-HSP90 MONOCLONAL ANTIBODY” (RIKEN, priority 2010, published 2011)

Legend:
mouse HSP90α = experiment: Epitope mapping by ELISA with biotinylated overlapping peptides; format: binding; conditions: 12-amino-acid overlapping peptides, antibody 1 μg/ml, OD405
Experimental: Epitope mapping was performed using biotinylated overlapping peptides. The biotinylated overlapping peptides were prepared as described in a publicly known document (J. Immunological Methods 2002; 267:27-35). The epitope mapping was performed using a library of 12-amino-acid-long synthetic peptides each having an overlap of four amino acids.
After an avidin-coated plate was blocked with BSA, the above-described biotinylated overlapping peptides (1.25-3.75 mg/ml) were added. The plate was incubated at room temperature for 2 hours, after which it was washed with PBS/Tween 20 to remove the unreacted biotinylated overlapping peptides. Each anti-HSP90 monoclonal antibody (1 μg/ml) was added, and the plate was incubated at room temperature for 2 hours. The plate was washed with PBS/Tween 20 to remove the unreacted antibody, after which anti-mouse IgG-ALP (BD Pharmingen, used at a 2000-fold dilution) was added, and the plate was incubated at room temperature for 1 hour. The plate was washed with PBS/Tween 20 to remove the unreacted anti-mouse IgG-ALP, after which a pNPP solution (KPL, 1 mg/ml) was added, and the plate was incubated at room temperature for 3 hours to cause color development. After the color development, the plate was subjected to measurement of OD405 nm. […]

cell surface HSP90 = experiment: FACS staining of antigen-presenting cells with the 6H8 antibody; format: binding; conditions: DC2.4, mouse BMDC, human immature and mature DC, mouse peritoneal macrophages, J774
Experimental: (1) 1.1 mg of the biotinylation reagent EZ-Link (registered trademark) Sulfo-NHS-Biotin (21217, Takara Bio Inc.) was dissolved in 250 μl of pure water (concentration 10 mM). 2 of the solution of the biotinylation reagent was added to 100 of an antibody protein (1 mg/ml), and the reaction was allowed to proceed while cooling on ice for 2 hours. After the reaction, the unreacted biotin reagent was removed using Centricon[5k] (Millipore). The reaction product was adjusted to a final concentration of 1 mg/ml and stored at 4° C. (2) DC2.4 not subjected to membrane permeabilization (1×10^6 cells/0.1 ml), along with the biotinylated anti-HSP90 antibody (1 μg/ml), was incubated at 4° C. for 30 minutes. For negative control, DC2.4 was likewise incubated in an antibody-free PBS. (3) After the unreacted antibody was removed, DC2.4 (1×10^6 cells/0.1 ml), along with PE-cy5 streptavidin (eBioscience, 15-4317-82, used at a concentration of 0.5 μg/ml), was incubated at 4° C. for 30 minutes. (4) After the unreacted PE-cy5 streptavidin was removed, the cells were analyzed by FACS (Becton Dickinson). […]

OT-I CD8+ T cells = experiment: In vivo differentiation of transferred OT-I CD8+ T cells into memory T cells (CD44); set-up: species or system mouse; conditions: 3 μg tail vein, 96 hours, compared with group that did not receive 6H8-OVA
Experimental: (1) 2×10^6 CD8^+ cells of an OT-I/CD45.1 mouse were transferred to a C57BL/6 mouse from the tail vein, with 3 μg of 6H8-OVA or PBS administered from the tail vein concurrently. (2) 96 hours later, the mouse spleen was recovered, and 2×10^6 splenocytes were stained with the following antibodies in a 96-well round-bottomed plate for 30 minutes (while cooling on ice).
PE-anti-mouse/human CD44 (eBioscience: Cat No. 12-0041), concentration: 1 μg/ml, amount used: 100 μl.
Biotin-anti-CD45.1 (eBioscience: 13-0453), concentration: 2.5 μg/ml, amount used: 100 μl.
(3) After being washed twice with PBS, the cells were stained with the following antibody for 30 minutes (while cooling on ice).
Streptavidin-APC (BioLegend: 405207), concentration: 0.2 μg/ml, amount used: 100 μl.
(4) After being washed twice with Annexin-binding buffer, the cells were stained with FITC-Annexin V using the Annexin V FITC reagent for 10 minutes (while cooling on ice).
(5) Fluorescence was determined using FACS Canto (BD).

specific CTL = experiment: Specific CTL induction in immunized mice, comparison with IFA+OVA257-264; format: in vivo, mouse; conditions: immunized twice at 1-week interval, tail vein; tetramer-positive cells in CD8-positive cells
Experimental: Mice were immunized twice with 6H8-OVA or IFA+OVA at a 1-week interval. For 6H8-OVA, the specified amount of 6H8-OVA was diluted in 200 μl of PBS and administered from the tail vein. For IFA+OVA, an emulsion was prepared so that the specified amount of OVA257-264 peptide would be contained in the 200 μl dose, and subcutaneously administered. The emulsion was prepared by mixing the required amount of the OVA257-264 peptide in PBS in advance, and adding an equal amount of IFA (SIGMA: F5506) thereto.
Seven days after final immunization, the spleen of each recipient mouse was collected and finely loosened using tweezers, and splenocytes were recovered. A pellet of splenocytes was prepared in a 15-ml tube, and 2 ml of an FCS-free complete RPMI containing the OVA257-264 peptide (final concentration 10^−5 M) was added thereto. With the lid of the tube loosened, the tube was allowed to stand in an incubator at 37° C. with 5% CO2 for 1 hour. Subsequently, the culture broth RPMI (containing 10% FCS) was added to adjust the total volume to 20 ml, and 2 ml each was put into a 24-well plate.
After 5 days of cultivation, the cells were recovered and stained using the H-2K^b+OVA257-264-specific tetramer (MBL: TS-5001-1) and FITC-anti-mouse CD8a (eBioscience: 11-0081), and induction of specific CTL was confirmed using FACS Canto. […]

Molecule	epitope region mapped (amino acid numbers) (mouse HSP90α)	recognition of cell surface HSP90 on antigen-presenting cells (FACS) (cell surface HSP90)	expression level of CD44 on transferred OT-I CD8+ T cells (OT-I CD8+ T cells)	CTL induction compared with IFA+OVA (specific CTL)
6H8: anti-HSP90 monoclonal antibody produced by hybridoma FERM BP-11222; epitope … (antibody) VH: QVQLQQSGPELVKPGASVRISCKASGYTFTSYYIHWVKQRPGQGLEWIGWIYPGNVNTKYNEKFKGKATLTADKSSSTAYMQLSSLTSEDSAVYFCARYGNYPFAYWGQGTLVTVSAAKTTAPSVYPLAPVCGDTTGSSVTLGCLVKGYF VL: DVVMTQTPLSLPVSLGDQASISCRSSQSLVHSNGNTYLHWYLQKPGQSPKLLIYKVSNRFSGVPDRFSGSGSGTDFTLKISRVEAEDLGVYFCSQSTHVPPTFGGGTKLEIKRADAAPTVSIFPPSSEQLTSGGASVVCFLNNFYPKDINVKWKIDGS	HSP90α713-724	recognized cell surface HSP90 on cells other than human PBMC-derived immature DC		
6H8-OVA: high molecular weight conjugate of the 6H8 antibody and maleimide-activated OVA (conjugate) VH: QVQLQQSGPELVKPGASVRISCKASGYTFTSYYIHWVKQRPGQGLEWIGWIYPGNVNTKYNEKFKGKATLTADKSSSTAYMQLSSLTSEDSAVYFCARYGNYPFAYWGQGTLVTVSAAKTTAPSVYPLAPVCGDTTGSSVTLGCLVKGYF VL: DVVMTQTPLSLPVSLGDQASISCRSSQSLVHSNGNTYLHWYLQKPGQSPKLLIYKVSNRFSGVPDRFSGSGSGTDFTLKISRVEAEDLGVYFCSQSTHVPPTFGGGTKLEIKRADAAPTVSIFPPSSEQLTSGGASVVCFLNNFYPKDINVKWKIDGS GSIGAASMEFCFDVFKELKVHHANENIFYCPIAIMSALAMVYLGAKDSTRTQINKVVRFDKLPGFGDSIEAQCGTSVNVHSSLRDILNQITKPNDVYSFSLASRLYAEERYPILPEYLQCVKELYRGGLEPINFQTAADQARELINSWVESQTNGIIRNVLQPSSVDSQTAMVLVNAIVFKGLWEKAFKDEDTQAMPFRVTEQESKPVQMMYQIGLFRVASMASEKMKILELPFASGTMSMLVLLPDEVSGLEQLESIINFEKLTEWTSSNVMEERKIKVYLPRMKMEEKYNLTSVLMAMGITDVFSSSANLSGISSAESLKISQAVHAAHAEINEAGREVVGSAEAGVDAASVSEEFRADHPFLFCIKHIATNAVLFFGRCVSP			increased	as effective as, or more effective than, IFA+OVA
